Numbering of substitutions follows the chain as printed. Values belong to the binder of their own block, whether it stands above or below them.
Key:
recombinant human βIG-H3 [1] = target: T1, recombinant human βIG-H3 (human, UniProt Q15582 24-683); assay: SPR single cycle kinetics, mAb captured via anti-human IgG (Fc) on CM5, hβIG-H3 5-100 nM as analyte, 1:1 model; SCK2 Fc2
T1 construct: Bought recombinant protein; also called rhβIG-H3; rhbIG-H3
T1 sequence (looked up): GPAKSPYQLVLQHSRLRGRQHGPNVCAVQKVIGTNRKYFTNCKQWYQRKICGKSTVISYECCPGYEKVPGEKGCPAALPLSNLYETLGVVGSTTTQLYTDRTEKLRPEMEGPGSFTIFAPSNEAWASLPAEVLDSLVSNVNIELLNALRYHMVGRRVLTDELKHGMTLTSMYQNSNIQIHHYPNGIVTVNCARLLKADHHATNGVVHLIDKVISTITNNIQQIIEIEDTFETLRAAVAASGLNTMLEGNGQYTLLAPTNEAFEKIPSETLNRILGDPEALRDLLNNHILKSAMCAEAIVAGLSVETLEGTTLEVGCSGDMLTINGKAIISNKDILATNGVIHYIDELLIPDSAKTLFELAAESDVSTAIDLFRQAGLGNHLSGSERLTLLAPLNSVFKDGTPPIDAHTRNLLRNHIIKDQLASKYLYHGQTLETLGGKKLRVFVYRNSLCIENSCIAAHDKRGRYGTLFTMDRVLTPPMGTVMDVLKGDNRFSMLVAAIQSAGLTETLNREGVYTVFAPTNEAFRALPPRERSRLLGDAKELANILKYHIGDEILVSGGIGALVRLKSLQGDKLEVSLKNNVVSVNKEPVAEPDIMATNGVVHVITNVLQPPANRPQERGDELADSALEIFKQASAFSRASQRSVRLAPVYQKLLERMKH
Description: (§1) Anti-Human IgG (Fc) antibody is chemically grafted on a CM5 sensorchip using amine coupling according to the Cytivia 22064888AF notice. Briefly, surface is first activated by injection of a NHS-EDC mixture. Then, several injections (3 on the 10 available on the kit) of Anti-Human IgG (25 μg/ml in immobilization buffer) adjusting the contact time are performed. Finally, the surfaces are deactivated with ethanolamine 1M pH 8.5.
(§2) A negative control Ab is immobilized on sensor flowcell 1 (Fc 1) and positive control (chimeric 18B3 mAB) on Fc 2. 18B3 variants Abs are immobilized on Fc3 and Fc4:
(§3) Injection of increasing concentrations (5; 10; 25; 50; 100 nM) of antigen (hβIG-H3) during 180 s is performed on each flowcell. Short dissociations are performed in RB between each antigen concentration. After injection of the highest antigen concentration (100 nM), a dissociation in RB is recorded during 3600 s. [0348] Three similar cycles with five injections of RB are carried out before the cycle of Antigen in order to perform double subtraction procedure (Blank run). [0349] Three similar cycles with five injection of RB and a dissociation time of 600 s are performed before the blank runs in order to stabilize the system (Startup run).

recombinant human βIG-H3 [2] = target: T1, recombinant human βIG-H3; assay: SPR single cycle kinetics, mAb captured via anti-human IgG (Fc) on CM5, hβIG-H3 5-100 nM as analyte, 1:1 model; SCK1 Fc2
Description: as §1, §2, §3

recombinant human βIG-H3 [3] = target: T1, recombinant human βIG-H3; assay: SPR Biacore T200, antibody captured via anti-human IgG, rhbIG-H3 as analyte, 1:1 fit, mean of n=3
Description: (§4) The assays were conducted using Biacore T200 instrument. It was performed in 2 steps: [0324] The first step, called suitability test, was aiming at determining the optimal conditions to run the assay: here, best sensor chip and running buffer conditions are assessed to defined best signal/noise ratio. [0325] The second step is the run itself that was performed in triplicate to ensure reproducibility and robustness of the results.
(§5) For the first step, 2 sensors and various buffer conditions were assessed using the parental and Chimeric 18B3 mAbs as a reference. It was then defined that sensor Chip C1 was the most appropriate, and buffer containing 300 mM NaCl and 0.25 mg/mL BSA was reducing the non-specific binding and increased the signal.
(§6) Rate constants (kₐ, kd) and equilibrium dissociation constants (KD) of rhbIG-H3 interaction with six antibodies determined by SPR. Experimental data were fitted to a 1:1 binding model. Listed are mean values ±SD of n=3 independent experiments.

recombinant human βIG-H3 [4] = target: T1, recombinant human βIG-H3; assay: direct ELISA on coated rhβIG-H3, anti-human IgG-HRP
recombinant human βIG-H3 [5] = target: T1, recombinant human βIG-H3; assay: SPR Biacore T200, antibody captured via anti-mouse IgG, rhbIG-H3 as analyte, 1:1 fit, mean of n=3
Description: as §4, §5, §6

recombinant human βIG-H3 [6] = target: T1, recombinant human βIG-H3; assay: SPR single cycle kinetics, mAb captured via anti-human IgG (Fc) on CM5, hβIG-H3 5-100 nM as analyte, 1:1 model; SCK2 Fc4
Description: as §1, §2, §3

recombinant human βIG-H3 [7] = target: T1, recombinant human βIG-H3; assay: SPR single cycle kinetics, mAb captured via anti-human IgG (Fc) on CM5, hβIG-H3 5-100 nM as analyte, 1:1 model; Fc4, first of two runs (run label misplaced in print)
Description: as §1, §2, §3

recombinant human βIG-H3 [8] = target: T1, recombinant human βIG-H3; assay: SPR single cycle kinetics, mAb captured via anti-human IgG (Fc) on CM5, hβIG-H3 5-100 nM as analyte, 1:1 model; SCK1 Fc3
Description: as §1, §2, §3

recombinant human βIG-H3 [9] = target: T1, recombinant human βIG-H3; assay: SPR single cycle kinetics, mAb captured via anti-human IgG (Fc) on CM5, hβIG-H3 5-100 nM as analyte, 1:1 model; SCK2 Fc3
Description: as §1, §2, §3

recombinant human βIG-H3 [10] = target: T1, recombinant human βIG-H3; assay: direct ELISA on coated rhβIG-H3

Kd (recombinant human βIG-H3 [1]): 85.4 pM
koff (recombinant human βIG-H3 [1]): 0.00016 s⁻¹
kon (recombinant human βIG-H3 [1]): 1.87e+06 M⁻¹ s⁻¹
Kd (recombinant human βIG-H3 [2]): 62.7 pM
koff (recombinant human βIG-H3 [2]): 0.00013 s⁻¹
kon (recombinant human βIG-H3 [2]): 2.06e+06 M⁻¹ s⁻¹
Kd (recombinant human βIG-H3 [3]): 187 pM
koff (recombinant human βIG-H3 [3]): 0.000247 s⁻¹
kon (recombinant human βIG-H3 [3]): 1.32e+06 M⁻¹ s⁻¹
ELISA Titer (recombinant human βIG-H3 [4]): 0.03 µg/mL
B1: Chimeric huIgG1 k 18B3 (antibody, V domains shown)
VH: EVQLVESGGGLVKPGGSLKLSCAASGFTFSDYYMYWVRQTPEKRLEWVATISDGGIYTYYPDSVKGRFTISRDSAKNNLYLQMTSLKSDDTAMYYCVRGWDRYDSWFACWGQGTLVTVSA
VL: DIVMSQSPSSLVVSAGEKVTMTCKSSQSLLYSSNQKNYLAWYRQKPGQSPKLLIYWASTRESGVPDRFTGSGSGTDFTLTISSVKAEDLAVYYCQQYYRYPYTFGGGTKLEIKR
notes: also called ch18B3; 18B3 chim

Kd (recombinant human βIG-H3 [5]): 411 pM
koff (recombinant human βIG-H3 [5]): 0.000234 s⁻¹
kon (recombinant human βIG-H3 [5]): 572000 M⁻¹ s⁻¹
B2: Mouse monoclonal 18B3 (antibody, V domains shown)
VH: B1 VH
VL: DIVMSQSPSSLVVSAGEKVTMTCKSSQSLLYSSNQKNYLAWYRQKPGQSPKLLIYWASTRESGVPDRFTGSGSGTDFTLTISSVKAEDLAVYYCQQYYRYPYTFGGGTKLEIK
notes: Mouse IgG1/k from hybridoma; also called m18B3; murine 18B3 mAb

Kd (recombinant human βIG-H3 [3]): 535 pM
koff (recombinant human βIG-H3 [3]): 0.000659 s⁻¹
kon (recombinant human βIG-H3 [3]): 1.23e+06 M⁻¹ s⁻¹
ELISA Titer (recombinant human βIG-H3 [4]): 0.047 µg/mL
B3: Humanized 18B3 B (H330-V1/L41-V1) (antibody, human IgG1, kappa, V domains shown)
VH: QVQLVESGGGVVQPGGSLRLSCAASGFTFSDYYMYWVRQAPGKGLEWVATISDGGIYKYYADSVKGRFTISRDSSKNTLYLQMNSLRAEDTAVYYCVRGWDRYDSWFACWGQGTTVTVSS
VL: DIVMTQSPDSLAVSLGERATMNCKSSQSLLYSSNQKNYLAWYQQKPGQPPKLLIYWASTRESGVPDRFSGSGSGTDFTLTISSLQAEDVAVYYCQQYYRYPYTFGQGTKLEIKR
notes: also called H-330/L-41; H330/L41

Kd (recombinant human βIG-H3 [3]): 476 pM
koff (recombinant human βIG-H3 [3]): 0.000583 s⁻¹
kon (recombinant human βIG-H3 [3]): 1.23e+06 M⁻¹ s⁻¹
ELISA Titer (recombinant human βIG-H3 [4]): 0.04 µg/mL
B4: Humanized 18B3 E (H330-V1/L228-V1) (antibody, human IgG1, kappa, V domains shown)
VH: B3 VH
VL: DIVMTQSPLSLPVTPGEPASMSCRSSQSLLYSSNQKNYLAWYLQKPGQSPQLLIYWGSTRESGVPDRFSGSGSGTDFTLKISRVEAEDVGVYYCQQYYRYPYTFGQGTKLEIKR
notes: also called H330/L228

Kd (recombinant human βIG-H3 [6]): 171 pM
koff (recombinant human βIG-H3 [6]): 0.000478 s⁻¹
kon (recombinant human βIG-H3 [6]): 2.79e+06 M⁻¹ s⁻¹
Kd (recombinant human βIG-H3 [7]): 120 pM
koff (recombinant human βIG-H3 [7]): 0.000559 s⁻¹
kon (recombinant human βIG-H3 [7]): 4.66e+06 M⁻¹ s⁻¹
ELISA Titer (recombinant human βIG-H3 [4]): 0.0036 µg/mL
B5: 18B3 H330-V1.2/L228-V1 (antibody, human IgG1, kappa, V domains shown)
VH: B3 VH with C109S
VL: B4 VL
notes: also called H-330/L-228 V1.2

Kd (recombinant human βIG-H3 [3]): 490 pM
koff (recombinant human βIG-H3 [3]): 0.000707 s⁻¹
kon (recombinant human βIG-H3 [3]): 1.45e+06 M⁻¹ s⁻¹
ELISA Titer (recombinant human βIG-H3 [4]): 0.046 µg/mL
B6: Humanized 18B3 D (H311-V1/L228-V1) (antibody, human IgG1, kappa, V domains shown)
VH: B3 VH with V11L, Q13K, V37I, K58I, S75A, T78S
VL: B4 VL
notes: also called H311/L228

Kd (recombinant human βIG-H3 [3]): 482 pM
koff (recombinant human βIG-H3 [3]): 0.000726 s⁻¹
kon (recombinant human βIG-H3 [3]): 1.5e+06 M⁻¹ s⁻¹
ELISA Titer (recombinant human βIG-H3 [4]): 0.041 µg/mL
B7: Humanized 18B3 A (H311-V1/L41-V1) (antibody, human IgG1, kappa, V domains shown)
VH: B3 VH with V11L, Q13K, V37I, K58I, S75A, T78S
VL: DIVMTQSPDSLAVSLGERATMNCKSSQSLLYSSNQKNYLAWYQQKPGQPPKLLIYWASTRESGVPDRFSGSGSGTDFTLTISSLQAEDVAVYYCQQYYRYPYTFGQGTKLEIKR
notes: also called H311/L41

Kd (recombinant human βIG-H3 [8]): 124 pM
koff (recombinant human βIG-H3 [8]): 0.000798 s⁻¹
kon (recombinant human βIG-H3 [8]): 6.46e+06 M⁻¹ s⁻¹
Kd (recombinant human βIG-H3 [9]): 169 pM
koff (recombinant human βIG-H3 [9]): 0.000659 s⁻¹
kon (recombinant human βIG-H3 [9]): 3.9e+06 M⁻¹ s⁻¹
ELISA Titer (recombinant human βIG-H3 [4]): 0.0038 µg/mL
B8: 18B3 H330-V1.2/L41-V1 (antibody, human IgG1, kappa, V domains shown)
VH: B3 VH with C109S
VL: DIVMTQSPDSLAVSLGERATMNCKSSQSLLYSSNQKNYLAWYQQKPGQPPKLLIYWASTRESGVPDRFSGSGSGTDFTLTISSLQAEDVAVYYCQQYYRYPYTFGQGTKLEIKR
notes: also called H-330/L-41 V1.2; H330C102S/L-41

binding result (recombinant human βIG-H3 [10]): binds
B9: H-169/L-315 (antibody, human IgG1, kappa, V domains shown)
VH: QVQLVQSGAEVKKPGSSVKVSCKASGFTFSDYYMYWVRQAPGQGLEWVGTISDGGIYAYYAQKVQGRFTITRDSSTSTLYLELSSLRSEDTAVYYCVRGWDRYDSWFACWGQGTTVTVSS
VL: EIVMTQSPATLSVSPGERATMSCRASQSLLYSSNQKNYLAWYQQKPGQAPRLLIYWASTRETGIPARFSGSGSGTEFTLTISSLQSEDFAVYYCQQYYRYPYTFGQGTKLEIKR

binding result (recombinant human βIG-H3 [10]): binds
B10: H-169/L-41 (antibody, human IgG1, kappa, V domains shown)
VH: B9 VH
VL: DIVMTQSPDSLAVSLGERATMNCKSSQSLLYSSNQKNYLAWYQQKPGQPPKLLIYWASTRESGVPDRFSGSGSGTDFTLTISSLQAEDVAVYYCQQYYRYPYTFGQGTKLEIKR

binding result (recombinant human βIG-H3 [10]): binds
B11: H-311/L-315 (antibody, human IgG1, kappa, V domains shown)
VH: B3 VH with V11L, Q13K, V37I, K58I, S75A, T78S
VL: B9 VL

binding result (recombinant human βIG-H3 [10]): binds
B12: H-169/L-228 (antibody, human IgG1, kappa, V domains shown)
VH: B9 VH
VL: B4 VL

binding result (recombinant human βIG-H3 [10]): binds
B13: H-330/L-315 (antibody, human IgG1, kappa, V domains shown)
VH: B3 VH
VL: B9 VL
